# T1: IL13Rα2 deletion mutant D1-1c (15 residues …, 57-71, deleted) (human, UniProt Q14627 27-343)
# T1 construct: also called 突变的IL13Rα2蛋白的D1-1c
# T1 sequence: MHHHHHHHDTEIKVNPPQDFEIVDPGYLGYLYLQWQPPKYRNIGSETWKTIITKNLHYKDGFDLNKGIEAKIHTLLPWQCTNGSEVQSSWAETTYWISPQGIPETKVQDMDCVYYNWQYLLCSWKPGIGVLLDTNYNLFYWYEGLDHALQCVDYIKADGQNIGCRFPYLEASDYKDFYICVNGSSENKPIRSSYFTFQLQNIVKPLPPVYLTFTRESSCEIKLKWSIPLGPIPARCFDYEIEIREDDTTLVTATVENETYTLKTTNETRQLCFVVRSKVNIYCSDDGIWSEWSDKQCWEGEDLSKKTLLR
# T2: IL13Rα2 glycine-scan mutant EP1 (human, UniProt Q14627 27-343, limits assumed)
# T2 chain: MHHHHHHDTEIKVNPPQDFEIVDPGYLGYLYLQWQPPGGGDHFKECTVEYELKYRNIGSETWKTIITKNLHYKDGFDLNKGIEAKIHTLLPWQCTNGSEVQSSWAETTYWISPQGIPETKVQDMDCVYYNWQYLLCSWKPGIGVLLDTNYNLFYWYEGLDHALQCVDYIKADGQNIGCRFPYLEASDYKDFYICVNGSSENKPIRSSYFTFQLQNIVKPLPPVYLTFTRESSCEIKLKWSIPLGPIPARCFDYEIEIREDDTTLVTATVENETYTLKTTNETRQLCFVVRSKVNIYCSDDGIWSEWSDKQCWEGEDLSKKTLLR
# T3: IL13Rα2 glycine-scan mutant EP2 (human, UniProt Q14627 27-343)
# T3 construct: The changed residues (60-62) are inferred in the same way as for EP1
# T3 chain: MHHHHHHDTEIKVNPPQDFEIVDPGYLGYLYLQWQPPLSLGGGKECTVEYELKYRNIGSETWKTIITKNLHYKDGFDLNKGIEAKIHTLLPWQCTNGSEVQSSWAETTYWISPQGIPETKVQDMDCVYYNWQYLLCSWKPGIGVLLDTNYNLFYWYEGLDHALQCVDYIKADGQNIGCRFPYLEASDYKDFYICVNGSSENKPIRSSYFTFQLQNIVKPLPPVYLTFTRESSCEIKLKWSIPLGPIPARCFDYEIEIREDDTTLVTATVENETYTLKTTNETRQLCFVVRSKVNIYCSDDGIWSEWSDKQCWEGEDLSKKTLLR
# T4: IL13Rα2 glycine-scan mutant EP3 (human, UniProt Q14627 27-343)
# T4 construct: The changed residues (63-65) are inferred in the same way as for EP1
# T4 chain: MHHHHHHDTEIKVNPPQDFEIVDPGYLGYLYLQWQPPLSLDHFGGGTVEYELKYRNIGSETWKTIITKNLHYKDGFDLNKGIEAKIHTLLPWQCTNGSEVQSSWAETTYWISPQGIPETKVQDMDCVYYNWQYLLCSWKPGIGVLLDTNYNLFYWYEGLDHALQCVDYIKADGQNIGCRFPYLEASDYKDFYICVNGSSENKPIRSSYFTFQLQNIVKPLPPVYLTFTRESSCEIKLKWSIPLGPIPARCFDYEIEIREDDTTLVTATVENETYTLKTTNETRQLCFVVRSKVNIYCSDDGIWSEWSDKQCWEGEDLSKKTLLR
# T5: IL13Rα2 expressed in lung cancer cells A549 and H460 (fixed, permeabilised cells) (UniProt Q14627 27-380, limits assumed)
# T5 construct: whole, on cells; A549 and H460 are human lung cancer lines; also called A549和H460细胞中的IL13Rα2
# T5 sequence (looked up): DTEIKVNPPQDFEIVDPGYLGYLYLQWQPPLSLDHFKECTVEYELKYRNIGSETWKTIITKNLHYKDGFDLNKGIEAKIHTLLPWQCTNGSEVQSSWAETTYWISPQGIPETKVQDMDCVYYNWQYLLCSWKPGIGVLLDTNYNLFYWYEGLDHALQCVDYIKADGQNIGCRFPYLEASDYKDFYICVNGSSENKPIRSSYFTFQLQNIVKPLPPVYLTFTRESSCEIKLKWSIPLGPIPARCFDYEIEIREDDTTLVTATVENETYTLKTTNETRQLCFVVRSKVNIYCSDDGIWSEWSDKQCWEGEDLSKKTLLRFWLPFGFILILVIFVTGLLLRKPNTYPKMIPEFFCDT
# T6: IL13Rα2 antigen with His tag, expressed from pMAL in E. coli (IL13Rα2-HIS) (human) (UniProt Q14627)
# T6 sequence: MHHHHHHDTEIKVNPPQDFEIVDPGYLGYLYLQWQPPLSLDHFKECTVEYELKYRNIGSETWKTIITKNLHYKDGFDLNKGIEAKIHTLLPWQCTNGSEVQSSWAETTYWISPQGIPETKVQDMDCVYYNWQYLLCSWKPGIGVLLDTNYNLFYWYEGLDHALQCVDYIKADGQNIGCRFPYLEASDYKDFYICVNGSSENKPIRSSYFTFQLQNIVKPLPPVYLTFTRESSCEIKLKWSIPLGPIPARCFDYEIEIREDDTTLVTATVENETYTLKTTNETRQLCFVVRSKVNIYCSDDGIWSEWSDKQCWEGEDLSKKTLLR
# T7: IL13Rα2 antigen with His tag, expressed from pMAL in E. coli (IL13Rα2-HIS) (human, UniProt Q14627 27-343)
# T7 construct: Purified on Ni-NTA; also called IL13Rα2抗原; pMAL-IL13Rα2
# T7 sequence: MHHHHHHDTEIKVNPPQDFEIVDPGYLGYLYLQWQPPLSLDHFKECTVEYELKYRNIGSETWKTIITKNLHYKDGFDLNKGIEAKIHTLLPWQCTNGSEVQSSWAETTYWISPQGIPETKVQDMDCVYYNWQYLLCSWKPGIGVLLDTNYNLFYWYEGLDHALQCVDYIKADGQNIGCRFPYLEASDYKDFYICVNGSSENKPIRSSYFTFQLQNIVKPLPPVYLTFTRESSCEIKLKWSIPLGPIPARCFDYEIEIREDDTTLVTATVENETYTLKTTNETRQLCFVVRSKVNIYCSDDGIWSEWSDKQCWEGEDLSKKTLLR
# B1: anti-IL13Rα2 monoclonal antibody mAb15D8 (mouse, from hybridoma) (antibody, mouse IgG1, kappa, V domains shown)
# VH: QVTLKESGPGILQPSQTLSLTCSFSGFSLSPSGMGVSWIRQPSGKGLEWLAHIYWDDDKLYNPSLKSRLTISKDTSSNQVFLKITSVDTADTATYYCARRGLRLRAMDYWGQGTSVTVSS
# VL: DIVLTQSPASLAVSLGQRATISCRASESVDSYGNSFMHWYQQKPGQPPKLLIYRTSNLESGIPARFSGSGSRTDFTLTINPVEADDVATYYCQQSNEDPFTFGSGTKLEIKR
# notes: Purified on Protein G; also called m15D8; 单克隆抗体15D8
# B2: recombinantly expressed monoclonal antibody mAb15D8 (293F cells transiently transfected with p15D8MusE) (antibody, mouse IgG1, kappa, V domains shown)
# VH: QVTLKESGPGILQPSQTLSLTCSFSGFSLSPSGMGVSWIRQPSGKGLEWLAHIYWDDDKLYNPSLKSRLTISKDTSSNQVFLKITSVDTADTATYYCARRGLRLRAMDYWGQGTSVTVSS
# VL: DIVLTQSPASLAVSLGQRATISCRASESVDSYGNSFMHWYQQKPGQPPKLLIYRTSNLESGIPARFSGSGSRTDFTLTINPVEADDVATYYCQQSNEDPFTFGSGTKLEIKR
# notes: also called 重组表达单克隆抗体mAb15D8; 重组表达抗体
# Assays:
# [1] = target: T1, IL13Rα2 deletion mutant D1-1c (15 …); test: Western blot
# [2] = target: T2, IL13Rα2 glycine-scan mutant EP1; test: Western blot, glycine scan mutants
# [3] = target: T3, IL13Rα2 glycine-scan mutant EP2; test: Western blot, glycine scan mutants
# [4] = target: T4, IL13Rα2 glycine-scan mutant EP3; test: Western blot, glycine scan mutants
# [5] = target: T5, IL13Rα2 expressed in lung cancer cells …; test: immunofluorescence on fixed, permeabilised cells
# [6] = target: T6, IL13Rα2 antigen with His tag, expressed from pMAL in E. coli (IL13Rα2-HIS) (human); test: indirect ELISA, antigen coated at 3 μg/ml, serial dilutions of the antibody
# [7] = target: T7, IL13Rα2 antigen with His tag, expressed …; test: Western blot (Fig. 24)
Binder,binding result [1],binding result [2],binding result [3],binding result [4],binding result [5],效价 (titer) (fold dilution) [6],binding result [7]
B1,no binding,no binding,no binding,no binding,binds,> 10000,–
B2,–,–,–,–,–,–,binds

# Reference: patent CN114573694A (SHENZHEN HUAJI BIOTECHNOLOGY CO LTD; UNIV SHANGHAI TRAFFIC, dated 2022)
